Where “and” joins values, the source holds several entries; their conditions need not be identical. Identical values can stand only once.
Key:
[1] = target: EVA-A(C8) (A. americanum); assay: SPR
[2] = target: EVA-A(1-98) (A. americanum); assay: SPR
[3] = target: EVA-A(21-102) (A. americanum); assay: SPR
[4] = target: EVA-A(DC) (Amblyomma americanum); assay: SPR
[5] = target: EVA-A(Y44A) (A. americanum); assay: SPR
[6] = target: EVA-A(L39P) (Amblyomma americanum); assay: SPR
[7] = target: EVA-A(C8) (Amblyomma americanum); assay: SPR
[8] = target: EVA-A(Y44A) (Amblyomma americanum); assay: SPR
[9] = target: EVA-A(L39P) (A. americanum); assay: SPR
[10] = target: EVA-A(DN) (Amblyomma americanum); assay: SPR
[11] = target: EVA-4 (UniProt P0C8E9); assay: not stated; Kd of EVA-4 for human chemokines, three readings (source data of Supplementary Fig. 7); method and conditions not told for EVA-4

In the case of “CCL16 (from UniProt O15467 24-120) (ligand)”, the Kd [1] is reported as 1.9 nM, the koff [1] is reported as 0.00075 s⁻¹ and the kon [1] is reported as 396000 M⁻¹ s⁻¹. The Kd [2] was under 0.1 nM, the koff [2] was under 0.0001 s⁻¹ and the kon [2] was 258000 M⁻¹ s⁻¹. It also gave a Kd [3] of 0.22 nM, a koff [3] of 0.00019 s⁻¹ and a kon [3] of 831000 M⁻¹ s⁻¹. The Kd [4] was 0.000499 nM and 0.00352 nM and 0.00269 nM, the kon [4] was 256000 M⁻¹ s⁻¹ and 253000 M⁻¹ s⁻¹ and 265000 M⁻¹ s⁻¹ and the Kd [5] was 0.2 nM. For the same substance, the koff [5] was 0.00013 s⁻¹, the kon [5] was 664000 M⁻¹ s⁻¹ and the Kd [6] was 0.188 nM and 0.138 nM. The koff [6] was 0.000226 s⁻¹ and 0.000159 s⁻¹, the kon [6] was 1.2e+06 M⁻¹ s⁻¹ and 1.15e+06 M⁻¹ s⁻¹ and the Kd [7] was 1.95 nM and 1.84 nM. For the same substance, the koff [7] was 0.000666 s⁻¹ and 0.000831 s⁻¹, the kon [7] was 341000 M⁻¹ s⁻¹ and 451000 M⁻¹ s⁻¹ and the Kd [8] was 0.181 nM and 0.268 nM and 0.148 nM. For the same substance, the koff [8] was 0.0001 s⁻¹ and 0.000143 s⁻¹ and 0.000134 s⁻¹, the kon [8] was 552000 M⁻¹ s⁻¹ and 534000 M⁻¹ s⁻¹ and 906000 M⁻¹ s⁻¹ and the Kd [9] was 0.17 nM. The koff [9] was 0.00016 s⁻¹, the kon [9] was 1.18e+06 M⁻¹ s⁻¹ and the Kd [10] was 0.223 nM and 0.225 nM and 0.22 nM. The koff [10] was 0.000191 s⁻¹ and 0.000182 s⁻¹ and 0.000181 s⁻¹, the kon [10] was 858000 M⁻¹ s⁻¹ and 809000 M⁻¹ s⁻¹ and 826000 M⁻¹ s⁻¹ and the Kd [11] was 2.31 nM and 4.95 nM and 5 nM.

Source: article PMC10349104
